Literature values, collected in paper PMC7708053.

Molecular target: T1, hnRNP L (cited Kd) (UniProt P14866)
T1 sequence: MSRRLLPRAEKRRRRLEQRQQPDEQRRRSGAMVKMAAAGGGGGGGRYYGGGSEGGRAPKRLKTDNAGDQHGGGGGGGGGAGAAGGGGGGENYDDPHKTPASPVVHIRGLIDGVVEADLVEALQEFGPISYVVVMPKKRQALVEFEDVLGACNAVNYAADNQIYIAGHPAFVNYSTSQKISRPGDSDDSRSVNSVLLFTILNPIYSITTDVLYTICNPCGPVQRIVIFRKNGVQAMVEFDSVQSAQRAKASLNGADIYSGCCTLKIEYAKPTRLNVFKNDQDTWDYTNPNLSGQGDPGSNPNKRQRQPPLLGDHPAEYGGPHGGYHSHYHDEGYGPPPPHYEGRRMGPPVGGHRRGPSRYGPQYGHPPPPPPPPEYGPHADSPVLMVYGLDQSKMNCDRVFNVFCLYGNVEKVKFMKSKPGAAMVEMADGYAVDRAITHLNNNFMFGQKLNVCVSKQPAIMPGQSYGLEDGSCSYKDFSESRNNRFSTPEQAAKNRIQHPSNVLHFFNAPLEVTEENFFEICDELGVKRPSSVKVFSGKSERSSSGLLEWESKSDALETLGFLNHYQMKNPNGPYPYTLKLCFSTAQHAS
Experiment: not stated (cited)
Details: 50 pmol biotinylated RNA on streptavidin beads with HeLa lysate in RIPA (50 mM Tris-Cl pH 7.4, 150 mM NaCl, 5 mM EDTA, 1% NP-40), washed at 300 mM KCl …

AUACAUGACACACACACGCA [CA-SELEX#51 20-mer]
Kd: 7.2 nM
